Data published in the supplement of paper PMC10567573.

B1: AUP1 (parent)
chain: FCASTRLPPTPLLLFPEEEATNGR
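Note: lentivirally expressed fusions sorted by FACS into six bins by GFP to DsRed ratio, PSI derived from sequencing read proportions per bin multiplied by bin number.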

Variants of: B1
Assay: protein stability index of a GFP-peptide fusion (GPS, HEK-293T) (PSI 1-6); higher = more stable
Conditions: c terminus: a fixed tail appended
In the case of FCASTRLPPTVLLLFPEEEATNGR [P11V], the protein stability index is reported as 2.8. For FCASTRLPPTYLLLFPEEEATNGR [P11Y], the protein stability index was 1.91. FCASTRLPPTWLLLFPEEEATNGR [P11W] showed a protein stability index of 2.14. For FCASTRLPPTTLLLFPEEEATNGR [P11T], the protein stability index was 2.74. For FCASTRLPPTSLLLFPEEEATNGR [P11S], the protein stability index was 3.05. Variant FCASTRLPPTPLLLFPEEEAMNGR [T21M] has a protein stability index of 2.46. In the case of FCASTRLPPTPLLLFPEEEAANGR [T21A], the protein stability index is reported as 2.6. With FCASTRLPPTPLLLFPEEEAENGR [T21E] the protein stability index was 3.68. FCASTRLPPTPLLLFPEEEAVNGR [T21V] gave a protein stability index of 2.7. In the case of FCASTRLPPTPLLLFPEEEADNGR [T21D], the protein stability index is reported as 3.35. Variant FCASTRLPPTPLLLFPEEEAINGR [T21I] has a protein stability index of 2.79. FCASTRLPPTPLLLFPEEEAFNGR [T21F] gave a protein stability index of 2.28. With FCASTRLPPTPLLLFPEEEACNGR [T21C] the protein stability index was 3.05. For FCASTRLPPTPLLLFPEEEALNGR [T21L], the protein stability index was 2.37. Variant FCASTRLPPTPLLLFPEEEAGNGR [T21G] has a protein stability index of 2.68. Variant FCASTRLPPTPLLLFPEEEAHNGR [T21H] has a protein stability index of 2.69. FCASTRLPPTPLLLFPEEEAKNGR [T21K] showed a protein stability index of 3.09. With FCASTRLPPTPLLLFPEEEANNGR [T21N] the protein stability index was 3.15. In the case of FCASTRLPPTPLLLFPEEEAYNGR [T21Y], the protein stability index is reported as 2.65. Variant FCASTRLPPTPLLLFPEEEAQNGR [T21Q] has a protein stability index of 2.46. Work on FCASTRLPPTPLLLFPEEEARNGR [T21R] yielded a protein stability index of 2.8. With FCASTRLPPTPLLLFPEEEAWNGR [T21W] the protein stability index was 2.15. Variant FCASTRLPPTPLLLFPEEEASNGR [T21S] has a protein stability index of 2.52. FCASTRLPPTPLLLFPGEEATNGR [E17G] gave a protein stability index of 2.31. In the case of FCASTRLPPTPLLLFPAEEATNGR [E17A], the protein stability index is reported as 1.96. Variant FCASTRLPPTPLLLFPTEEATNGR [E17T] has a protein stability index of 1.62. In the case of FCASTRLPPTPLLLFPFEEATNGR [E17F], the protein stability index is reported as 1.83. In the case of FCASTRLPPTPLLLFPMEEATNGR [E17M], the protein stability index is reported as 2.51. FCASTRLPPTPLLLFPREEATNGR [E17R] showed a protein stability index of 1.96. For FCASTRLPPTPLLLFPDEEATNGR [E17D], the protein stability index was 2.7. FCASTRLPPTPLLLFPSEEATNGR [E17S] gave a protein stability index of 1.8. FCASTRLPPTPLLLFPNEEATNGR [E17N] gave a protein stability index of 2.55. FCASTRLPPTPLLLFPYEEATNGR [E17Y] gave a protein stability index of 2.47. FCASTRLPPTPLLLFPIEEATNGR [E17I] gave a protein stability index of 1.93. For FCASTRLPPTPLLLFPCEEATNGR [E17C], the protein stability index was 1.52. FCASTRLPPTPLLLFPQEEATNGR [E17Q] showed a protein stability index of 2.28. With FCASTRLPPTPLLLFPKEEATNGR [E17K] the protein stability index was 2.25. Work on FCASTRLPPTPLLLFPLEEATNGR [E17L] yielded a protein stability index of 1.5. Variant FCASTRLPPTPLLLFPWEEATNGR [E17W] has a protein stability index of 1.7. Work on FCASTRLPPTPLLLFPVEEATNGR [E17V] yielded a protein stability index of 2.09. With FCASTRLPPTPLLLLPEEEATNGR [F15L] the protein stability index was 3.44. In the case of FCASTRLPPTPLLLIPEEEATNGR [F15I], the protein stability index is reported as 3.23. FCASTRLPPTPLLLTPEEEATNGR [F15T] showed a protein stability index of 3.74. In the case of FCASTRLPPTPLLLGPEEEATNGR [F15G], the protein stability index is reported as 3.24. FCASTRLPPTPLLLHPEEEATNGR [F15H] showed a protein stability index of 3.34. Variant FCASTRLPPTPLLLCPEEEATNGR [F15C] has a protein stability index of 2.61. In the case of FCASTRLPPTPLLLVPEEEATNGR [F15V], the protein stability index is reported as 3.1. With FCASTRLPPTPLLLYPEEEATNGR [F15Y] the protein stability index was 2.61. FCASTRLPPTPLLLWPEEEATNGR [F15W] showed a protein stability index of 2.68. FCASTRLPPTPLLLQPEEEATNGR [F15Q] showed a protein stability index of 3.35. FCASTRLPPTPLLLEPEEEATNGR [F15E] gave a protein stability index of 3.46. For FCASTRLPPTPLLLKPEEEATNGR [F15K], the protein stability index was 3.11. FCASTRLPPTPLLLNPEEEATNGR [F15N] gave a protein stability index of 3.44. FCASTRLPPTPLLLMPEEEATNGR [F15M] showed a protein stability index of 3.12. With FCASTRLPPTPLLLRPEEEATNGR [F15R] the protein stability index was 3.37. Variant FCASTRLPPTPLLLDPEEEATNGR [F15D] has a protein stability index of 3.62. Work on FCASTRLPPTPLLLSPEEEATNGR [F15S] yielded a protein stability index of 3.45. Variant FCASTRLPPTPLLLAPEEEATNGR [F15A] has a protein stability index of 2.93. FCASTRLPPTPLCLFPEEEATNGR [L13C] gave a protein stability index of 3.01. With FCASTRLPPTPLHLFPEEEATNGR [L13H] the protein stability index was 3.4. With FCASTRLPPTPLALFPEEEATNGR [L13A] the protein stability index was 3.43. With FCASTRLPPTPLFLFPEEEATNGR [L13F] the protein stability index was 2.18. In the case of FCASTRLPPTPLVLFPEEEATNGR [L13V], the protein stability index is reported as 3.25. Variant FCASTRLPPTPLGLFPEEEATNGR [L13G] has a protein stability index of 3.42. Work on FCASTRLPPTPLRLFPEEEATNGR [L13R] yielded a protein stability index of 3.45. Work on FCASTRLPPTPLSLFPEEEATNGR [L13S] yielded a protein stability index of 3.54. For FCASTRLPPTPLMLFPEEEATNGR [L13M], the protein stability index was 3.15. For FCASTRLPPTPLWLFPEEEATNGR [L13W], the protein stability index was 1.59. For FCASTRLPPTPLQLFPEEEATNGR [L13Q], the protein stability index was 3.32. For FCASTRLPPTPLDLFPEEEATNGR [L13D], the protein stability index was 3.94. FCASTRLPPTPLYLFPEEEATNGR [L13Y] gave a protein stability index of 2.62. Work on FCASTRLPPTPLILFPEEEATNGR [L13I] yielded a protein stability index of 2.77. With FCASTRLPPTPLELFPEEEATNGR [L13E] the protein stability index was 3.86. With FCASTRLPPTPLKLFPEEEATNGR [L13K] the protein stability index was 2.74. For FCASTRLPPTPLNLFPEEEATNGR [L13N], the protein stability index was 3.12. FCASTRLPPTPLTLFPEEEATNGR [L13T] gave a protein stability index of 3.56. FCASTRLPPTPLLLFPEEEATAGR [N22A] showed a protein stability index of 2.87. FCASTRLPPTPLLLFPEELATNGR [E19L] gave a protein stability index of 2.19. With FCASTRLPPTPLLLFPEEKATNGR [E19K] the protein stability index was 2.32. FCASTRLPPTPLLLFPEEDATNGR [E19D] showed a protein stability index of 2.68. With FCASTRLPPTPLLLFPEETATNGR [E19T] the protein stability index was 2.68. In the case of FCASTRLPPTPLLLFPEEMATNGR [E19M], the protein stability index is reported as 2.08. For FCASTRLPPTPLLLFPEEQATNGR [E19Q], the protein stability index was 2.94. Work on FCASTRLPPTPLLLFPEEFATNGR [E19F] yielded a protein stability index of 1.73. For FCASTRLPPTPLLLFPEEVATNGR [E19V], the protein stability index was 2.33. Work on FCASTRLPPTPLLLFPEEHATNGR [E19H] yielded a protein stability index of 2.23. For FCASTRLPPTPLLLFPEECATNGR [E19C], the protein stability index was 2.04. Work on FCASTRLPPTPLLLFPEENATNGR [E19N] yielded a protein stability index of 2.62. Variant FCASTRLPPTPLLLFPEEIATNGR [E19I] has a protein stability index of 2.02. Variant FCASTRLPPTPLLLFPEEYATNGR [E19Y] has a protein stability index of 2.69. For FCASTRLPPTPLLLFPEEGATNGR [E19G], the protein stability index was 2.29. For FCASTRLPPTPLLLFPEEPATNGR [E19P], the protein stability index was 2.38. In the case of FCASTRLPPTPLLLFPEEWATNGR [E19W], the protein stability index is reported as 1.87. FCASTRLPPTPLLLFPEERATNGR [E19R] showed a protein stability index of 2.05.
